Experimental data reported in patent US20180017572A1.

Target: complement factor C1q (UniProt P02745)
Assay: flow cytometry: BT-474 cells with 10 µg/mL antibody, then 10 µg/mL C1q, detected with PE-labeled anti-C1q antibody

complement factor C1q, sequence (P02745 23-245 limits assumed, chain 1 of 3): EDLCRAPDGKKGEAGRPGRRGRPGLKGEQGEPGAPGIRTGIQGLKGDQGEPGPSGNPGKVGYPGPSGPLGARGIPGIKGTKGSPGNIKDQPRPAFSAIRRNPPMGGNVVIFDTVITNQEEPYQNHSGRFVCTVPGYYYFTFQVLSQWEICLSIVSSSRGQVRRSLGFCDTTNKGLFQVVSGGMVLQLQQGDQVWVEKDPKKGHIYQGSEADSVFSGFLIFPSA
complement factor C1q, sequence (P02746 28-253 limits assumed, chain 2 of 3, further chain): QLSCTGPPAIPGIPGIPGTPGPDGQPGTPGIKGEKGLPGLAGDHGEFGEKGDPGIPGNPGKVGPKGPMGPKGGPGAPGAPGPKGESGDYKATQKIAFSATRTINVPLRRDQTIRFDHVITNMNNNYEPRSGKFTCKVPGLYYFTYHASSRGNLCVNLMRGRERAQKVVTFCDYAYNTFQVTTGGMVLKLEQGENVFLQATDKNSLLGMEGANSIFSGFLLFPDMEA
complement factor C1q, sequence (P02747 29-245 limits assumed, chain 3 of 3, further chain): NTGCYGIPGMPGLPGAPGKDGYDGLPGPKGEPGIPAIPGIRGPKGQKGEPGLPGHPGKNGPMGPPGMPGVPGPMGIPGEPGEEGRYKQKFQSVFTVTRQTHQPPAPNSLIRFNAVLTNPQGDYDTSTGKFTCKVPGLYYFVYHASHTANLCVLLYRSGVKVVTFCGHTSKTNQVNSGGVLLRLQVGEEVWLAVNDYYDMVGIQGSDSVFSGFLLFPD

PE-signal (geomean) (geomean PE-signal): 2160
Substance: combination of trastuzumab and pertuzumab (from UniProt P0DOX5 2-449; P0DOX5 2-449)
